Test results as given in patent publication US5789216A, “Cloning and expression of human GMP synthetase, its use in screening for inhibitors of human GMP synthetase and inhibitors of human GMP synthetase” (Syntex (U.S.A.) Inc., priority 1995, dated 1998).
Where two headings read alike, the source gives them in different places.

Assays:
[1] = Spectrophotometric-coupled assay of Spector (rate of AMP production; specific activity of enzyme preparations); assay type: biochemical
Text: The medium will usually be a salt medium such as normal saline, phosphate buffer, or phosphate buffered saline containing additives well known to those skilled in the art and commercially available from a number of suppliers such as GIBCO and Hyclone. The cultured cells are then homogenized under conventional conditions such as, for example, sonication, freeze-thawing, and hypotonic lysis, and the cytosolic fraction is obtained by centrifugation and recovery of the supernatant. Differential salt fractionation, using, for example, ammonium sulfate, is employed to separate the GMP synthetase-richprotein fraction. Salt is then removed by one of a variety of known methods such as gel filtration, dialysis and the like. The desalted protein fraction is then subjected to anion exchange chromatography. […] Fractions showing GMP-synthetase activity are further subjected to hydrophobic interaction chromatography and a second purification via anion exchange chromatography. […] The assay measures the rate of production of AMP by GMP synthetase by coupling it to the oxidation of NADH via the auxiliary enzymes AMP kinase, pyruvate kinase and lactate dehydrogenase.
This assay measured the rate of AMP production by GMP synthetase, and the level of AMP is measured through the activity of three auxiliary enzymes. […] This rate is referred to as background rate.

[2] = partially purified, approximately 50-fold, human fibroblast cells; cited from earlier work
[3] = tested on: GMP synthetase from Ehrlich ascites cells; conditions: cited from earlier work
lymphocyte = conditions: can be blocked by exogenous guanosine; cited from earlier work
[4] = tested on: transplant rejection and rheumatoid arthritis; conditions: recent clinical trials; cited from earlier work
IMP dehydrogenase = conditions: cited from earlier work
[5] = purified enzyme, repeated purifications or single preparation

recombinant human GMP synthetase: baculoviral expressed human GMP synthetase purified from Sf-9 cells
specific activity [1, 5]: 3.0-4.4 μmol AMP produced/min/mg | specific activity ([1]; purified enzyme, repeated purifications or single preparation, listed as purified protein): 4.4 μmol AMP produced/min/mg

partially purified preparation from human fibroblast cells: GMP synthetase from human fibroblasts, purified approximately 50-fold by ammonium sulfate fractionation and gel filtration
specific activity [2]: 5990 pmoles guanine compound produced/min/mg

O=P(O)(O)OP(=O)(O)O [pyrophosphate]
inhibition of the enzyme by its reaction product [3]: inhibition

human GMP synthetase: purified human GMP synthetase from A3.01 cells, single Coomassie blue-staining band at 75 kDa
specific activity ([1]; Mono Q pool, purified from A3.01 cells): 3.0 μmol AMP/min-mg | specific activity [1, 5]: 2.5-4.0 μmol AMP produced/min/mg

COc1c(C)c2c(c(O)c1C/C=C(\C)CCC(=O)O)C(=O)OC2 [mycophenolic acid]
inhibition of lymphocyte proliferation, correlated with lowering of the intracellular pool of guanine nucleotides (lymphocyte): inhibition of lymphocyte proliferation | effective in treatment of transplant rejection and rheumatoid arthritis [4]: effective | inhibitor of IMP dehydrogenase (IMP dehydrogenase): potent inhibitor
